Laboratory results as given in paper PMC7452893 (2020).

Legend:
[1] = target: T1, SARS-CoV-2 spike receptor-binding domain (RBD), monomeric (SARS-CoV-2, UniProt P0DTC2); assay: BLI
[2] = target: T1, SARS-CoV-2 spike receptor-binding …; assay: BLI; remark: listed apart in the source

B1: MD47 (antibody, V domains shown)
V domain 1: QMQLVQSGGGLVQPGGSLRLSCAASGFTFSSYAMSWVRQAPGKGLEWVSAISSGGSTYYADSVKGRFTISRDNSKNTLYLQMNSLRAEDTAVYYCAKDLVTAPSYEAFDIWGQGTMITVSS
V domain 2: NFMLTQPPSVSVAPGKTARITCGGNNIGSKSVHWYQQKPGQAPVLVIYYDSDRPSGIPERFSGSNSGNTATLTISRVEAGDEADYYCQVWDSSSHHHVVFGGGTKGTVL
modifications: biotinylated when immobilised on the BLI sensor
- Kd [1]: 0.5 nM
- koff [2]: 9e-05 s⁻¹

B2: MD67 (antibody, V domains shown)
VH: EVQLVESGGGLVQPGGSLRLSCAASGFTVSSNYMTWVRQAPGKGLEWVSVIYSGGSTFYADSVKGRFTISRHNSKNTLYLQMNSLRAEDTAVYYCARDLSVRGGMDVWGQGTTVTVSS
VL: not shown
modifications: biotinylated when immobilised on the BLI sensor
- koff [2]: 0.00075 s⁻¹

B3: MD45 (antibody, V domains shown)
VH: EVQLVQSGGGLVQPGGSLRLSCAASGFTVSSNYMTWVRQAPGKGLEWVSVIYSGGSTFYADSVKGRFTISRHNSKNTLYLQMNSLRAEDTAVYYCARDLSVRGGMDVWGQGTMVTVSS
VL: EIVLTQSPGTLSLSPGERATLSCRASQSVNSSYLAWYQQKPGQAPRLLIYGASNRATGIPDRFSGSGSGTDFTLTISRLEPEDFAVYYCQQYGVSPEIIFGQGTRLEIK
modifications: biotinylated when immobilised on the BLI sensor
- Kd [1]: 5.6 nM
- koff [2]: 0.00055 s⁻¹

B4: MD29 (antibody, V domains shown)
VH: QMQLVQSGGGLVQPGGSLRLSCSASGFTFSTYVMNWVRQAPGKGPEHVSGISSDGGITYYADSVKGRFTISRDNSKNTLYLQMSSLRVEDTAVYYCVKDQDSSSWYDAFDIWGQGTMVTVSS
VL: NIRLTQSPSSLSASVGDRVTITCRATQSISSYLNWYQQKPGKAPNLLIYAASSLQSGVPSRFSGSGSGTDFTLTISSLQPEDFATYYCHQTYTSPYTFGQGTKLEIK
modifications: biotinylated when immobilised on the BLI sensor
- koff [2]: 0.00014 s⁻¹

B5: MD17 (antibody, V domains shown)
VH: EVQLLESGGGLVQPGGSLRLSCSASGFTFSTYVMNWVRQAPGKGLEHVSGISSDGGITYYADSVKGRFTISRDNSKNTLYLQMSSLRVEDTAVYYCVKDQDSSSWYDAFDIWGQGTMVTVSS
VL: DIVMTQSPSSLSASVGDRVTITCRASQSISNYLNWYQQKLGKAPKLLTYAASRLQSGVPSRFSASGSGTEFTLTISSLQPEDFATYYCQQSYTTPLTFGGGTKLEIK
modifications: biotinylated when immobilised on the BLI sensor
- Kd [1]: 2.6 nM
- koff [2]: 0.00026 s⁻¹

B6: MD62 (antibody, V domains shown)
VH: EVQLVQSGGGLIQPGGSLRLSCAASGVTVSSNYMTWVRQAPGKGLEWVSLIYSGGSTYYADSVKGRFTISRDNSKNTLYLQMNSLRAEDTAVYYCARDLQYYGMDVWGQGTMVTVSS
VL: AIRMTQSPSSVSASVGDRVTITCRASQDIGSWLGWYQQKPGKAPKLLIYAASSLAGGVPSRFSGSGSGTDFTLTISSLQPEDFATYYCQQANSFPLTFGGGTKLEIK
modifications: biotinylated when immobilised on the BLI sensor
- Kd [1]: 4.8 nM
- koff [2]: 0.00063 s⁻¹

B7: MD63 (antibody, V domains shown)
VH: QVTLKESGGGVVQPGRSLRLSCAASGFTFSSYAMHWVRQAPGKGLEHVSAISSDGGITYFADSVKGRFTISRDNSRNTLFLQMSSLRVEDTAVYYCVKDQDSNSWYDAFDIWGRGTMVTVSS
VL: not shown
modifications: biotinylated when immobilised on the BLI sensor
- Kd [1]: 3.4 nM
- koff [2]: 0.00053 s⁻¹
